Square brackets hold non-standard residues; d marks the D form. Ends that are not written are not given here. Tyr(3-NO2) = N[C@@H](Cc1ccc(O)c([N+](=O)[O-])c1)C(=O)O; Phe(4-NO2) = N[C@@H](Cc1ccc([N+](=O)[O-])cc1)C(=O)O; Tyr(3,5-Br2) = N[C@@H](Cc1cc(Br)c(O)c(Br)c1)C(=O)O; Phe(4-CN) = N#Cc1ccc(C[C@H](N)C(=O)O)cc1; Phe(4-Cl) = N[C@@H](Cc1ccc(Cl)cc1)C(=O)O; Phe(4-F) = N[C@@H](Cc1ccc(F)cc1)C(=O)O; hPhe = N[C@@H](CCc1ccccc1)C(=O)O; Phg = N[C@H](C(=O)O)c1ccccc1
T1: CMG2 38-218 (Homo sapiens, UniProt P58335)
T1 chain: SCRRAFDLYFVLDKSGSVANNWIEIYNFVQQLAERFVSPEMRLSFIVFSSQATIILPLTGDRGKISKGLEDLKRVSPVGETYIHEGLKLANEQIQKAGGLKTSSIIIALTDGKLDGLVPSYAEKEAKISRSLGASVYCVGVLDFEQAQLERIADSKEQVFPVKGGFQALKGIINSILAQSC


Key:
CMG2 38-218 [1] = target: T1, CMG2 38-218; test: microscale thermophoresis
CMG2 38-218 [2] = target: T1, CMG2 38-218; test: sandwich ELISA (competition with His6-PA 488-735)

Binder	Kd (CMG2 38-218 [1]) [µM]	IC50 (CMG2 38-218 [2]) [µM]
CLR[Tyr(3-NO2)]T [CLR(3-nitro-Y)T]	112	–
CLR[Phe(4-F)]T [CLR(4-fluoro-F)T]	49.9	–
CLR[Phe(4-CN)]T [CLR(4-cyano-F)T]	61.4	–
CLR[Phe(4-NO2)]T [CLR(4-nitro-F)T]	36.2	–
CLRPT	–	153
CLR[Phe(4-Cl)]T [CLR(4-Cl-F)T]	14	–
CLR[hPhe]T [CLR(homophenylalanine)T]	74	–
CLR[Tyr(3,5-Br2)]T [CLR(3,5-dibromo-Y)T]	60	–
CLR[Phg]T [CLR(phenylglycine)T]	59.6	–
CLR[dF]T [CLR(D-Phe)T]	31	–

Reference: PMC5465072 (2017)
